Assay results reported in publication PMC9495943, “Recombinant Expression of Archaeal Superoxide Dismutases in Plant Cell Cultures: A Sustainable Solution with Potential Application in the Food Industry” (Antioxidants, 2022).

Target: the molecule itself
Test: SEC; Superdex 200 calibrated with standard protein markers; 50 mM Tris-HCl pH 7.5, 50 mM NaCl; partially purified SOD (ultrafiltration retentate of transformed tomato cell extract) loaded; apparent native mass compared with the theoretical mass of a homodimer

B1: Superoxide dismutase (Mn/Fe-dependent SOD) from Saccharolobus solfataricus P2 (enzyme, UniProt P80857 1-211, looked up)
chain: MTLQIQFKKYELPPLPYKIDALEPYISKDIIDVHYNGHHKGYVNGANSLLERLEKVVKGDLQTGQYDIQGIIRGLTFNINGHKLHALYWENMAPSGKGGGKPGGALADLINKQYGSFDRFKQVFTETANSLPGTGWAVLYYDTESGNLQIMTFENHFQNHIAEIPIILILDEFEHAYYLQYKNKRADYVNAWWNVVNWDAAEKKLQKYLTK
notes: Mn/Fe-dependent superoxide dismutase of Saccharolobus solfataricus P2; whole CDS (636 bp) amplified from genomic DNA and expressed in tomato cells; subunit of approximately 24 kDa; ORF cloned into the NcoI-XbaI sites of pCK-EGFP, then into pBI121; No tag is mentioned; also called SODSs; sodSs product
- stoichiometry N: 2
